Tests used:
[1] = target: T1, recombinant human VEGF165 (human, UniProt P15692-4 27-191); test: ELISA screen, periplasmic extract on coated hVEGF165
T1 construct: also called hVEGF165; rhVEGF165
Source text: Wells are blocked with a casein solution (1%). After addition of typically a 10-fold dilution of the periplasmic extracts, VHH binding is detected using a mouse anti-myc (Roche) and an anti-mouse-HRP conjugate (DAKO). Clones showing ELISA signals of >3-fold above background are considered as VEGF binding VHHs.

[2] = target: T1, recombinant human VEGF165; test: Biacore, periplasmic extract on hVEGF165 chip
Protocol: (§1) Dissociation rates of inhibitory VHHs are analyzed on Biacore (Biacore T100 instrument, GE Healthcare). HBS-EP+ buffer is used as running buffer and experiments are performed at 25° C. […] After immobilization, surfaces are deactivated with 10 min injection of 1M ethanolamine pH8.5. A reference surface is activated and deactivated with respectively EDC/NHS and ethanolamine. Periplasmic extracts of VHHs are injected at a 10-fold dilution in running buffer for 2 min at 45 μl/min and allowed to dissociate for 10 or 15 min. Between different samples, the surfaces are regenerated with regeneration buffer. Data are double referenced by subtraction of the curves on the reference channel and of a blank running buffer injection. […] is evaluated by fitting a two phase decay model in the Biacore T100 Evaluation software v2.0.1.

[3] = target: T1, recombinant human VEGF165; test: Biacore, periplasmic extract on hVEGF165 chip, two phase decay fit
Protocol: as §1

T1 sequence (P15692 other isoform, or with tags, fused parts or gaps limits assumed): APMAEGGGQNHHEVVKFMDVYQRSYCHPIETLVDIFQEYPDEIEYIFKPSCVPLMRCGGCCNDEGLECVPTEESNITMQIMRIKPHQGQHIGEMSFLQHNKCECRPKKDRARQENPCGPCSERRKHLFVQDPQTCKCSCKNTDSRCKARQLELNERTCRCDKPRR

binding result [1] | Binding level (RU) [2] [RU] | % fast [3] [%] | Binder
binds |  |  | VEGFBII89B04 (VHH) VHH: EVQLVESGGGLVQAGGSLRLSCAASTSISSTNFMGWYRQAPGKQRELVATITSSSITNYVDSVKGRFTISRDNAKNTVYLQMTSLKPEDTAVYYCHARWRWSDVEYWGKGTLVTVSS
binds |  |  | VEGFBII89F09 (VHH) VHH: EVQLVESGGGLVQAGDSLRLSCAASGRTFNNAIMGWFRQAPGQEREFVAAMNWRGGPTYYADSVKGRFTISGDNTKNTVFLQMNFLKPEDTAVYYCAADEDLYHYSSYHYSRVDLYHYWGQGTQVTVSS
 | 205 | 21 | VEGFBII62F02 (VHH, periplasmic extract) VHH: EVQLVESGGGLVQPGDSLKLSCAFSGRTFSSYSMGWFRQAQGKEREFVVAIASGGYIYDAVSLEGRFTISRDNTKDTVYLQTPSLKPEDTAVYYCAASRAYGSSRLRLADTYDYWGQGTQVTVSS
binds |  |  | VEGFBII01E07 (VHH) VHH: EVQLVESGGGLVQAGDSLRLSCVATGRTFRASDMGWFRQAPGKEREFVAAINWSGLSTFYTDSVKGRFTISRDNDNGALYLQMNTLKPEDTAVYSCAAGRIPSSSRFSSPAAYASWGQGTQVTVSS
binds |  |  | VEGFBII89D04 (VHH) VHH: EVQLVESGGGLVQPGGSLRLSCATSGLTFSDYNLGWFRQAPGKERQFVAVISWRDSFAYYAEPVKGRFTISRDNAKNTVYLQMNSLKPEDTAVYYCAADRVSSRLVLPNTSPDFGSWGQGTQVTVSS
binds |  |  | VEGFBII88H01 (VHH) VHH: EVQLVESGGGLVQAGGSLRLSCVASGFTLGTYAIGWFRQAPGKEREAVSCMSAGDSIPWYTASVKGRFTTSTDNARNTVYLQMNSLKPEDTAHYYCAAARYHGDYCYYEGYYPFWGQGTQVTVSS
binds |  |  | VEGFBII89G09 (VHH) VHH: EVQLVESGGGLVQPGGSLRLSCAASGTTSSIFAMRWYRQAPGKQRELVASITRSSITTYADSVKGRFTLSRDNAKNTVSLQMNSLKPEDTAVYYCNAAIRPELYSVVNDYWGQGTQVTVSS
binds |  |  | VEGFBII89H08 (VHH) VHH: EVQLVESGGGLVQAGGSLRLSCAASGGSFSSYAPGWFRQAPGKEREFVAAFTRSSNIPYYKDSVKGRFTISRDNAHTVYLQMNSLKPEDTAIYYCAVNLGSTWSRDQRTYDYWGQGTQVTVSS
binds |  |  | VEGFBII88G11 (VHH) VHH: EVQLVESGGGLAQAGGSLRLSCAASGRTFSGSDMGWFRQSPGKEREIVAAIRLSGSITYYPDSVKGRFTISRDNAKNTVYLQMNSLKPEDTAVYYCAARSTYSYYLALADRGGYDYWGQGTQVTVSS
binds |  |  | VEGFBII88G03 (VHH) VHH: EVQLVESGGGLVQAGGSLRLSCAASGGTFSSLAVGWFRQAPGKEREFVARITWSGATTYYADAVKDRFTISRDNAKNTMYLQMNSLKPEDTAVYYCAADRSPNIINVVTAYEYDYWGQGTQVTVSS
binds |  |  | VEGFBII88G05 (VHH) VHH: EVQLVESGGGLVQPGASLRLSCAASGDGFTLYNMGWFRQAPGKEREFVAAITSSPMSTYYADSVKGRFSISINNDKTTGFLQMNVLKPEDTGVYFCAAPEGSFRRQYADRAMYDYWGQGTQVTVSS
binds |  |  | VEGFBII01C02 (VHH) VHH: EVQLVESGGGLVQAGGSLRLSCTASGGSFSSYGMGWFRQSPGKEREFVSAISEYSNTYCSDSVRGRFTISRDNTKNTVYLQMNSLTPDDTAIYYCAASPTILLTTEQWYKYWGQGTQVTVSS

More lines, now with the values behind:

Binder | binding result [1] | Binding level (RU) [2] [RU] | % fast [3] [%]
VEGFBII23A03 (VHH, periplasmic extract) VHH: EVQLVESGGGLVQPGDSLKLSCVASGRTFSSYSMGWFRQAQGKEREFVVAISSGGYIYDSVSLQGRFTISRDNTKNTVYLQTPSLKPEDTAVYYCAASRAYGSSRLRLADTYDYWGQGTQVTVSS |  | 487 | 15
VEGFBII42F11 (VHH, periplasmic extract) VHH: EVQLVESGGGLVQPGDSLKLSCVASGRTSSSYSVGWFRQAQGKEREFVVAISSGGYIYDSVSLQGRFTISRDNTKNTVYLQTPSLKPEDTAVYYCAASRAYGSSRLRLADTYDYWGQGTQVTVSS |  | 100 | 46
VEGFBII23D11 (VHH, periplasmic extract) VHH: EVQLVESGGGLVQPGDSLRLSCAFSGRTFSSYSMAWFRQAQGKEREFVVAISSGGFIYDAVSLEGRFTISRDNTKNTVYLQTPSLKPEDTAVYYCAASRAYGSSRLRLADTYDYWGQGTQVTVSS |  | 510 | 13
VEGFBII61A01 (VHH, periplasmic extract) VHH: EVQLVESGGGLVQAGGSLRLSCAFSGRTFSSYSMGWFRQAQGKEREFVVAISSGGYKYDAVSLEGRFTISRDNTKNTVYLQTPSLKPEDTAVYYCAASRAYASSRLRLADTYDYWGQGTQVTVSS |  | 275 | 21
VEGFBII23E05 (VHH, periplasmic extract) VHH: EVQLVESEGGLVQPGDSLKLSCVASGRTSSSYSMGWFRQAQGKEREFVVAISSGGYIYDSVSLQGRFTISRDNTKNTVYLQTPSLKPEDTAVYYCAASRAYGSSRLRLADTYDYWGQGTQVTVSS |  | 275 | 18
VEGFBII23A08 (VHH, periplasmic extract) VHH: EVQLVESGGGLVQTGDSLRLSCVASGRTFSSYSMGWFRQAQGKEREFVVAISNGGYKYDSVSLEGRFTISRDNTKNTVYLQINSLKPEDTAVYYCAASRAYGSSRLRLADTYDYWGQGTQVTVSS |  | 502 | 19
VEGFBII22A11 (VHH, periplasmic extract) VHH: EVQLVESGGGLVQPGDSLKLSCAFSGRTFSSYSMAWFRQAQGKEREFVVAISSGGFIYDAVSLEGRFTISRDNTKNTVYLQTPSLKPEDTAVYYCAASRAYGSSRLRLADTYDYWGQGTQVTVSS |  | 461 | 12
VEGFBII40F02 (VHH, periplasmic extract) VHH: EVQLVESGGGLVQPGDSLKLSCAFSGRTFSSYSMAWFRQAQGKEREFVVAISSGGFIYDAVSLEGRFTISRDNTKNTVYLQTPSLKPEGTAVYYCAASRAYGSSRLRLADTYDYWGQGTQVTVSS |  | 258 | 20
VEGFBII41G03 (VHH, periplasmic extract) VHH: EVQLVESGGGLVQPGDSLKLSCAFSGRTFSSYSMAWFRQAQGKEREFVVAISSGGFIYDAVSLEGRFTISRENTKNTVYLQTPSLKPEDTAVYYCAASRAYGSSRLRLADTYDYWGQGTQVTVSS |  | 332 | 20
VEGFBII22E04 (VHH, periplasmic extract) VHH: EVQLVESGGGLVQPGDSLKLSCVASGRTSSSYSMGWFRQAQGKEREFVVAISSGGSIYDSVSLQGRFTISRDNTKNTVYLQTPSLKPEDTAVYYCAASRAYASSRLRLADTYDYWGQGTQVTVSS |  | 520 | 14
VEGFBII30C09 (VHH, periplasmic extract; also called VEGFBII30009) VHH: EVQLVESGGGLVQPGDSLKLSCIASGRTSSSYSMGWFRQAQGQEREFVVAISSGGYIYDSVSLQGRFTISRDNTKNTVYLQTPSLKPEDTAVYYCAASRAYGSSRLRLADTYDYWGQGTQVTVSS |  | 264 | 19
VEGFBII27D08 (VHH, periplasmic extract) VHH: EVQLVESGGGLVQTGDSLRLSCAASGRTFSSYSMGWFRQAQGKEREFVVAISSGGYKYDSVSLEGRFTISRDNTQNTVYLQINSLKPEDTAVYYCAASRAYGSGRLRLADTYDYWGQGTQVTVSS |  | 225 | 13
VEGFBII27G07 (VHH, periplasmic extract) VHH: EVQLVESGGGLVQPGDSLKLSCVASGRTSSSYSMGWFRQAQGQEREFVVAISSGGYIYDSVSLQGRFTISRDNTKNTVYLQTPSLKPEDTAVYYCAASRAYGSSRLRLADTYDYWGQGTQVTVSS |  | 471 | 18
VEGFBII41B05 (VHH, periplasmic extract) VHH: EVQLVESGGGLVQPGGSLRLSCAFSGRTFSSYSMGWFRQAQGKEREFVVAISSGGFIYDAVSLEGRFTISRDNTKNTVYLQTPSLKPEDTAVYYCAASRAYGSSRLRLADTYDYWGQGTQVTVSS |  | 324 | 16
VEGFBII89B08 (VHH) VHH: EVQLVESGGGLVQPGGSLRLSCAASGTTSSIFAMRWYRQAPGKQRELVASITRSSITTYADSVKGRFTPSRDNAKNTVSLQMNSLKPEDTAVYYCNAAIRPELYSVVNDYWGQGTQVTVSS | binds |  | 
VEGFBII22A10 (VHH, periplasmic extract) VHH: EVQLVESGGGLVQPGDSLKLSCAFSGRTFSSYSMGWFRQAQGKEREFVVAISSSGGYIYDSVSLEGRFTISRDNTKNTVYLQTPSLKPEDTADYYCAASRAYGSSRLRLADTYDYWGQGTQVTVSS |  | 229 | 19
